System: Escherichia coli TOP10
Experiment: shrunken log2 fold change of peptide-encoding DNA abundance (4.5 h post-induction vs induction); higher = less antimicrobial activity (less host growth inhibition)
Conditions: time post-induction: 4.5 h; library: site-saturation at positions 5, 18, 19, 20
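Further: peptides expressed intracellularly from a pBAD plasmid library in pooled LB shake-flask culture, induced with 0.3% L-arabinose, DNA abundance read by NGS, three biological replicates, DESeq2 with apeglm shrinkage.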

| Sequence | shrunken log2 fold change |
| --- | --- |
| RRIRYRPPRLPRPRPRPRMTPRP | -0.131 |
| RRIRPRPPRLPRPRPRPCRIPRP | -0.00277 |
| RRIRDRPPRLPRPRPRPQISPRP | 0.141 |
| RRIRVRPPRLPRPRPRPHCFPRP | -0.147 |
| RRIRMRPPRLPRPRPRPQTCPRP | 0.0193 |
| RRIRFRPPRLPRPRPRPQLCPRP | -0.0465 |
| RRIRERPPRLPRPRPRPKWMPRP | -0.0884 |
| RRIRYRPPRLPRPRPRPGFTPRP | -0.149 |
| RRIRVRPPRLPRPRPRPPISPRP | 0.0369 |
| RRIRQRPPRLPRPRPRPSFEPRP | -0.213 |
| RRIRFRPPRLPRPRPRPDQVPRP | 0.0246 |
| RRIRPRPPRLPRPRPRPYLVPRP | -0.203 |
| RRIRQRPPRLPRPRPRPPQLPRP | 0.424 |
| RRIRNRPPRLPRPRPRPTCIPRP | -0.0808 |
| RRIRVRPPRLPRPRPRPFPDPRP | -0.345 |
| RRIRSRPPRLPRPRPRPTDQPRP | 0.16 |
| RRIRTRPPRLPRPRPRPPIGPRP | 0.0445 |
| RRIRPRPPRLPRPRPRPGQHPRP | 0.0653 |
| RRIRYRPPRLPRPRPRPSQKPRP | -0.359 |
| RRIRIRPPRLPRPRPRPVSQPRP | -0.0669 |
| RRIRERPPRLPRPRPRPPLEPRP | 0.161 |
| RRIRIRPPRLPRPRPRPFRHPRP | -0.219 |
| RRIRQRPPRLPRPRPRPVHNPRP | -0.121 |
| RRIRDRPPRLPRPRPRPWCWPRP | 0.036 |
| RRIRIRPPRLPRPRPRPQMSPRP | -0.0696 |

| Sequence | shrunken log2 fold change |
| --- | --- |
| RRIRWRPPRLPRPRPRPSHRPRP | -0.271 |
| RRIRKRPPRLPRPRPRPVKAPRP | -0.0242 |
| RRIRWRPPRLPRPRPRPWVRPRP | -0.172 |
| RRIRRRPPRLPRPRPRPWDWPRP | 0.428 |
| RRIRKRPPRLPRPRPRPPFSPRP | -0.227 |
| RRIRSRPPRLPRPRPRPCPKPRP | 0.355 |
| RRIRIRPPRLPRPRPRPLFAPRP | -0.0892 |
| RRIRTRPPRLPRPRPRPTHAPRP | 4.04 |
| RRIRHRPPRLPRPRPRPQTRPRP | -0.148 |
| RRIRHRPPRLPRPRPRPLRCPRP | 0.0647 |
| RRIRCRPPRLPRPRPRPIDYPRP | -0.651 |
| RRIRVRPPRLPRPRPRPSPDPRP | -0.226 |
| RRIRCRPPRLPRPRPRPMIKPRP | -0.497 |
| RRIRLRPPRLPRPRPRPMNDPRP | -0.219 |
| RRIRQRPPRLPRPRPRPNEDPRP | 0.031 |
| RRIRSRPPRLPRPRPRPHMTPRP | -0.384 |
| RRIRNRPPRLPRPRPRPFVGPRP | -0.182 |
| RRIRDRPPRLPRPRPRPSGGPRP | 0.356 |
| RRIRHRPPRLPRPRPRPEGKPRP | 0.082 |
| RRIRGRPPRLPRPRPRPFSSPRP | 0.193 |
| RRIRFRPPRLPRPRPRPDHFPRP | -0.331 |
| RRIRQRPPRLPRPRPRPNDSPRP | -0.449 |
| RRIRPRPPRLPRPRPRPGHLPRP | 0.234 |
| RRIRIRPPRLPRPRPRPTSQPRP | -0.283 |
| RRIRLRPPRLPRPRPRPYNWPRP | -0.0937 |

| Sequence | shrunken log2 fold change |
| --- | --- |
| RRIRDRPPRLPRPRPRPGWHPRP | 0.27 |
| RRIRWRPPRLPRPRPRPMYLPRP | -0.507 |
| RRIRFRPPRLPRPRPRPVVYPRP | -0.127 |
| RRIRVRPPRLPRPRPRPGEIPRP | 0.0835 |
| RRIRWRPPRLPRPRPRPLDLPRP | 0.00678 |
| RRIRVRPPRLPRPRPRPFWMPRP | 0.0403 |
| RRIRVRPPRLPRPRPRPSAHPRP | -0.0182 |
| RRIRHRPPRLPRPRPRPPYPPRP | -0.0246 |
| RRIRARPPRLPRPRPRPIIFPRP | -0.323 |
| RRIRARPPRLPRPRPRPIFAPRP | 0.555 |
| RRIRPRPPRLPRPRPRPYHGPRP | 0.0397 |
| RRIRMRPPRLPRPRPRPRERPRP | 0.623 |
| RRIRARPPRLPRPRPRPCQCPRP | 0.0726 |
| RRIRQRPPRLPRPRPRPSQMPRP | -0.0442 |
| RRIRGRPPRLPRPRPRPTMDPRP | 0.985 |
| RRIRWRPPRLPRPRPRPKGYPRP | 0.0648 |
| RRIRSRPPRLPRPRPRPTGAPRP | 0.633 |
| RRIRTRPPRLPRPRPRPTPCPRP | 0.124 |
| RRIRTRPPRLPRPRPRPRHLPRP | 0.318 |
| RRIRYRPPRLPRPRPRPARTPRP | -0.298 |
| RRIRTRPPRLPRPRPRPHTSPRP | -0.301 |
| RRIRGRPPRLPRPRPRPWVWPRP | 0.368 |
| RRIRSRPPRLPRPRPRPPDWPRP | 0.661 |
| RRIRPRPPRLPRPRPRPLYGPRP | 0.0853 |
| RRIRKRPPRLPRPRPRPKQKPRP | 0.054 |

| Sequence | shrunken log2 fold change |
| --- | --- |
| RRIRVRPPRLPRPRPRPRGGPRP | 0.609 |
| RRIRMRPPRLPRPRPRPGSDPRP | 1.4 |
| RRIRSRPPRLPRPRPRPIIYPRP | -0.182 |
| RRIRDRPPRLPRPRPRPIVDPRP | -0.000946 |
| RRIRHRPPRLPRPRPRPVFGPRP | 0.0859 |
| RRIRYRPPRLPRPRPRPNEHPRP | -0.268 |
| RRIRRRPPRLPRPRPRPGPTPRP | 0.678 |
| RRIRARPPRLPRPRPRPKSIPRP | -0.078 |
| RRIRRRPPRLPRPRPRPTKTPRP | 0.049 |
| RRIRGRPPRLPRPRPRPSMMPRP | 0.0755 |
| RRIRDRPPRLPRPRPRPACMPRP | 0.242 |
| RRIRERPPRLPRPRPRPYYRPRP | -0.165 |
| RRIRMRPPRLPRPRPRPSFSPRP | -0.176 |
| RRIRWRPPRLPRPRPRPGPHPRP | -0.0302 |
| RRIRRRPPRLPRPRPRPAQKPRP | 0.547 |
| RRIRPRPPRLPRPRPRPNYDPRP | -0.388 |
| RRIRNRPPRLPRPRPRPTKPPRP | 0.24 |
| RRIRKRPPRLPRPRPRPRAAPRP | 1.13 |
| RRIRVRPPRLPRPRPRPDYTPRP | -0.495 |
| RRIRKRPPRLPRPRPRPPPHPRP | 0.781 |
| RRIRKRPPRLPRPRPRPYQAPRP | 0.134 |
| RRIRARPPRLPRPRPRPPQPPRP | 1.03 |
| RRIRFRPPRLPRPRPRPHCLPRP | -0.377 |
| RRIRSRPPRLPRPRPRPSKGPRP | -0.142 |
| RRIRSRPPRLPRPRPRPVEKPRP | -0.0804 |

| Sequence | shrunken log2 fold change |
| --- | --- |
| RRIRDRPPRLPRPRPRPMSCPRP | -0.00207 |
| RRIRYRPPRLPRPRPRPAMYPRP | -1.14 |
| RRIRDRPPRLPRPRPRPPNGPRP | 0.0163 |
| RRIRGRPPRLPRPRPRPKPLPRP | 0.375 |
| RRIRGRPPRLPRPRPRPCDMPRP | 0.22 |
| RRIRMRPPRLPRPRPRPMYYPRP | -0.339 |
| RRIRFRPPRLPRPRPRPRRSPRP | 0.0713 |
| RRIRYRPPRLPRPRPRPHFIPRP | -0.214 |
| RRIRPRPPRLPRPRPRPCGNPRP | -0.0502 |
| RRIRFRPPRLPRPRPRPRYQPRP | -0.738 |
| RRIRHRPPRLPRPRPRPCILPRP | -0.134 |
| RRIRARPPRLPRPRPRPCSGPRP | 0.0771 |
| RRIRMRPPRLPRPRPRPLHDPRP | 0.487 |
| RRIRPRPPRLPRPRPRPWTYPRP | -0.0785 |
| RRIRVRPPRLPRPRPRPCNSPRP | -0.116 |
| RRIRRRPPRLPRPRPRPHESPRP | 0.0784 |
| RRIRARPPRLPRPRPRPMCPPRP | 0.0408 |
| RRIRQRPPRLPRPRPRPYDSPRP | -0.00804 |
| RRIRHRPPRLPRPRPRPFFRPRP | -0.0964 |
| RRIRMRPPRLPRPRPRPAGHPRP | 1.24 |
| RRIRDRPPRLPRPRPRPRYYPRP | -0.175 |
| RRIRIRPPRLPRPRPRPDQPPRP | 0.022 |
| RRIRGRPPRLPRPRPRPECMPRP | 1.49 |
| RRIRYRPPRLPRPRPRPFYAPRP | -0.642 |
| RRIRHRPPRLPRPRPRPAHDPRP | 0.0776 |

| Sequence | shrunken log2 fold change |
| --- | --- |
| RRIRIRPPRLPRPRPRPHWYPRP | -1.16 |
| RRIRARPPRLPRPRPRPYPCPRP | -0.417 |
| RRIRRRPPRLPRPRPRPPSQPRP | 0.46 |
| RRIRERPPRLPRPRPRPRCQPRP | -0.0986 |
| RRIRGRPPRLPRPRPRPYPWPRP | 0.155 |
| RRIRVRPPRLPRPRPRPYLEPRP | -0.141 |
| RRIRMRPPRLPRPRPRPNLNPRP | -0.0299 |
| RRIRMRPPRLPRPRPRPHLPPRP | -0.00448 |
| RRIRIRPPRLPRPRPRPFTFPRP | -0.148 |
| RRIRIRPPRLPRPRPRPMKIPRP | -0.167 |
| RRIRMRPPRLPRPRPRPMVNPRP | -0.254 |
| RRIRARPPRLPRPRPRPQAKPRP | 0.0548 |
| RRIRYRPPRLPRPRPRPIMKPRP | 0.0367 |
| RRIRDRPPRLPRPRPRPPKEPRP | -0.2 |
| RRIRGRPPRLPRPRPRPCKHPRP | 0.112 |
| RRIRVRPPRLPRPRPRPQGGPRP | -0.0824 |
| RRIRIRPPRLPRPRPRPELAPRP | 0.254 |
| RRIRRRPPRLPRPRPRPNAAPRP | 0.794 |
| RRIRHRPPRLPRPRPRPVLSPRP | -0.386 |
| RRIRLRPPRLPRPRPRPEFIPRP | 0.0915 |
| RRIRRRPPRLPRPRPRPEHCPRP | -0.00244 |
| RRIRYRPPRLPRPRPRPGKEPRP | 0.0011 |
| RRIRDRPPRLPRPRPRPFSVPRP | -0.0199 |
| RRIRQRPPRLPRPRPRPHQYPRP | -0.237 |
| RRIRCRPPRLPRPRPRPPAIPRP | 0.532 |

Reference: the supplement of paper PMC9112550, “Optimization of the antimicrobial peptide Bac7 by deep mutational scanning” (BMC Biology, 2022)
